Paper PMC11957692, “TRIB3 mediates vascular calcification by facilitating self-ubiquitination and dissociation of Smurf1 in chronic kidney disease” (The Journal of Clinical Investigation, 2025)

Key:
[1] = biological target: T1, recombinant Smurf1 protein (UniProt Q9HCE7 1-757); assay: SPR
T1 chain: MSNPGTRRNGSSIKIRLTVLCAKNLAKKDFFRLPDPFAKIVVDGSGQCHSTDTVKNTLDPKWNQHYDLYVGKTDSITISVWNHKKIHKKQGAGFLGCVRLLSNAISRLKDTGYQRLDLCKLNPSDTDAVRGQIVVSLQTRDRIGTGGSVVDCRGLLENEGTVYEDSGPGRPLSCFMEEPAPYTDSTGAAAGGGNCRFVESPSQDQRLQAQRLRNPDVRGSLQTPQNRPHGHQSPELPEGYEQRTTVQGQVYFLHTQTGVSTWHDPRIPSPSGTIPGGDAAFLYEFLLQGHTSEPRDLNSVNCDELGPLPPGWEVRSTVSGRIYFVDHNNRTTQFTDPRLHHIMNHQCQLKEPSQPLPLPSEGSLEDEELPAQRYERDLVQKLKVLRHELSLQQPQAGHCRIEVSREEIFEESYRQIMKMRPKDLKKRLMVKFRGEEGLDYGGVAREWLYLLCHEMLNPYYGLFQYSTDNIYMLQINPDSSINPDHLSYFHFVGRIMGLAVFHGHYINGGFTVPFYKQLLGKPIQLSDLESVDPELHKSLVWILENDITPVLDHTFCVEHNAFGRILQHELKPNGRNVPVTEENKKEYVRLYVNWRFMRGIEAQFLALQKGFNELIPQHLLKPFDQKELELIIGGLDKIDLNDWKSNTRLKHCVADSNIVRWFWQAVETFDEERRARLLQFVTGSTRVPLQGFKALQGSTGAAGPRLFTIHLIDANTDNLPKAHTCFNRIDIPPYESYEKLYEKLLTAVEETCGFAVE

[2] = biological target: T2, recombinant Smurf1 protein (UniProt Q9HCE7 1-757); assay: SPR; recombinant Smurf1 immobilised on a CM5 sensor chip by amine coupling; TRIB3 protein applied at 31 nM to 8 uM; Biacore T200, kinetics model; settings: both partners purified
T2 construct: Smad ubiquitination regulatory factor 1 (Smurf1), recombinant protein immobilised on a CM5 chip for SPR; also called Smad ubiquitination regulatory factor 1; E3 ubiquitin-protein ligase Smurf1

koff [1]: 0.0015 s⁻¹
Kd [2]: 1.03 µM
B1: recombinant TRIB3 protein (natural protein, UniProt Q96RU7 1-358, looked up)
chain: MRATPLAAPAGSLSRKKRLELDDNLDTERPVQKRARSGPQPRLPPCLLPLSPPTAPDRATAVATASRLGPYVLLEPEEGGRAYQALHCPTGTEYTCKVYPVQEALAVLEPYARLPPHKHVARPTEVLAGTQLLYAFFTRTHGDMHSLVRSRHRIPEPEAAVLFRQMATALAHCHQHGLVLRDLKLCRFVFADRERKKLVLENLEDSCVLTGPDDSLWDKHACPAYVGPEILSSRASYSGKAADVWSLGVALFTMLAGHYPFQDSEPVLLFGKIRRGAYALPAGLSAPARCLVRCLLRREPAERLTATGILLHPWLRQDPMPLAPTRSHLWEAAQVVPDGLGLDEAREEEGDREVVLYG
notes: Tribbles homolog 3 (TRIB3), recombinant protein flowed over the chip in SPR; also called tribbles homolog 3
